Experimental findings from US20210284724A1 (I MAB BIOPHARMA US, published 2021) are described below.

Where a chain is given by its changes, count along the chain named.

First the molecules themselves.
T1: human CXCL13 (human, UniProt O43927 23-109)
T1 construct: also called huCXCL13; rhCXCL13
T1 sequence (looked up): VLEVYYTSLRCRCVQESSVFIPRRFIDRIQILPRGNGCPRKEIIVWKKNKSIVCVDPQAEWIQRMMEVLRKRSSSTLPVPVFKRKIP

B1: 64C10G1-VH1VL3 (Fab, V domains shown)
VH: EVQLVESGGGLVQPGGSLRLSCAASGFTFSSYAMSWVRQAPGKGLEWVATISDGGSDAYYPDNVKGRFTISRDNAKNSLYLQMNSLRAEDTAVYYCARDYYGSGYEDSPMDYWGQGTLVTVSS
VL: DIQMTQSPSSLSASVGDRVTITCKASQDINKYIAWYQQKPGKAPKLLIHYTSTLQPGIPSRFSGSGSGTDFTFTISSLQPEDFATYYCLQYDNLYTFGGGTKLEIK
notes: Humanized Fab, human gamma 1 and kappa constant domains; also called 64C10G1-VH1VL3(Fab)
B2: 19H7E10 chimeric human IgG1 antibody (antibody, V domains shown)
VH: EVQLQQSGPELVKPGASVKISCQASGYAFSDYYMNWVKQSHGKRLEWIGDINPNNDGTTYNQKFKDKATLTVDKSSSTAYMDLRSLTSEDSAVYYCARLSWSFFAMDYWGQGTSVTVSS
VL: DIVMTQSHKFMSTSVGDRVSITCKASQDVSSGVAWYQQKPGQSPKVLIYSASHRHTGVPDRFTASGSGTDFTFTISSVQAEDLAVYYCQQYYNTPWTFGGGTKLEIK
notes: Chimeric human IgG1
B3: 408E3F3 chimeric human IgG1 antibody (antibody, V domains shown)
VH: HVTLRESGPGVLQPSKTLSLTCSFSGFSLSTSAMVVSWIRQSSGMSLEWLAAIDWEGDKYYNPSLESRLTVSRDISDTQVFLRITSVDVADTATYYCAVMSSADSHSVLDAWGQGVSVTVSS
VL: DIKMTQSPSFLSASVGDRVTINCKASQNIHNYLNWYQQKFGEAPRLLIYNTNNLQTGIPSRFSGSGSGTDFTLTISSLQPEDVATYFCLQHSSSLTFGSGTKLEIN
notes: Chimeric human IgG1
B4: 411A11E9 chimeric Fab (Fab, V domains shown)
VH: EVQLVESGGGLVQPGGSLKLSCVVSGFTFSDYYMAWVRQTPTKGLEWVASINYDGGDTYYRDSVKGRFTVSRNNAKSSLFLQMDSLRSEDTATYYCKTEEDYDGSYVMDAWGQGASVIVSS
VL: DIQMTQSPSFLSASVGDRVTISCKASQNINKELTWYQQKLGKAPKRLIYNTNILQTGIPSRFSGSGSNTDYTLTISSLQPEDFATYFCLQQSSLYTFGAGTKLELK
notes: Fab
B5: 21H12D9 chimeric Fab (Fab, V domains shown)
VH: EVQLQQSGPVLVRPGASVKMSCKASGYTFTDYYMNWVKQSHGKSLEWIGVINPNNGGTTYKEKFKGKATLTVDKSSGTAYMELNSLTSEDSAVYYCARDDYDAGYWGQGTTLTVSS
VL: DIVMTQFQKFMSTTVGDRVSITCKASQNVDTAVAWYQHKPGQSPKLLIYSASHRYTGVPDRFTGSGSGTDFTLTISNVQSEDLADYFCQQYTDFPLTFGAGTKLELK
notes: Fab; also called 21VH12D9-Chimeric
B6: 329F2E1 chimeric Fab (Fab, V domains shown)
VH: EVKLLQSGGGLVQPGGSLKLSCAASGIDFSRYWMSWVRRAPGKGLEWIGEINPDSSTINYAPSLKDKFIISRDNAKNTLYLQMSKVRSEDTALYYCARQDDYDYYAMDYWGQGTSVTVSS
VL: DIVMTQSHKFMSTSVGDRVSITCKASQDVSTGVAWYQQKPGQSPKLLIYSASYRYTGVPDRFTGSGSRTDFTFTISSVQTEDPAVYYCHQYYTIPLTFGAGTELELK
notes: Fab
B7: 415A3D1 chimeric Fab (Fab, V domains shown)
VH: EVKLLESGGGLVQAGGSMRLSCGAFGFTVTDFYINWIRQPAGKAPEWLGFMRNKANGYTTEYNPSVKGRFTISRNNTQNMPYLQMNTLRTEDTAIYYCARSRYNADDYYVGVMDVWGQGASVTVSS
VL: DIQMTQFPASLSASLGETVSIECLASEDIYNNLAWYQQKPGKSPQLLIYYTNSLQDGVPSRFSGTGSGTQYSLKINSLESEDAATYFCLQDSEYPWTFGGGTKLKLK
notes: Fab; label read as clone 415A3D1F4
B8: 71F4-B-L (antibody, V domains shown)
VH: EVQLVESGGGLVQPGGSLRLSCAASGIDFSRYWMSWVRQAPGKGLEWVAEINPESSTINYAPSLKDRFTISRDNAKNSLYLQMNSLRAEDTAVYYCARQDDYLYYTMDYWGQGTTVTVSS
VL: DIQMTQSPSSLSASVGDRVTITCKVSQDVNTGVAWYQQKPGKAPKLLIYSASYRYTGVPSRFSGSGSGTDFTFTISSLQPEDIATYYCQQYYSTPLTFGGGTKLEIK
B9: 71F4-B-S1 (antibody, V domains shown)
VH: B8 VH with T57S, L103E
VL: B8 VL
B10: 71F4-B-SSH (antibody, V domains shown)
VH: B8 VH with T57S, L103S, Y104H
VL: B8 VL
B11: 71F4-B-S2 (antibody, V domains shown)
VH: B8 VH with L103S
VL: B8 VL
B12: 71F4-B-T (antibody, V domains shown)
VH: B8 VH with L103E, Y104T
VL: B8 VL
notes: also called 71F4A3-B-T
B13: 71F4-B-SH (antibody, V domains shown)
VH: B8 VH with L103S, Y104H
VL: B8 VL
B14: 71F4-B-LT (antibody, V domains shown)
VH: B8 VH with Y104T
VL: B8 VL
notes: also called 71F4A3-B-LT

The first assay concerns the target T1, human CXCL13. The assay can be described thus: cell-based blocking assay, CXCL13 to CXCR5 cells. The method in brief: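 The IC50 of the humanized Fabs was taken from a titration series. Each dilution was pre-incubated for 30 min at room temperature with an equal volume of human CXCL13 at 0.3 μg/ml, and 100 μl was then added for 30 min to fixed, blocked CHO-K1 cells expressing CXCR5 (5×10⁴/well). After three PBST washes, bound CXCL13 was captured with 3 μg/ml human anti-CXCL13 antibody, detected with anti-human Fc-HRP and read at 450 nm.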
For B1, the concentration for half-maximal inhibition (IC50) amounted to 7.69 nM. This counts as single-digit nanomolar.

The next assay has as its target T1, human CXCL13. The assay can be described thus: ELISA binding, Fab.
On to B1, for which the EC50 turned out to be 1.07 nM.

A further assay addresses T1, human CXCL13. The assay can be described thus: cell-based blocking ELISA, CXCL13 to CHO-K1-CXCR5. The protocol: This example tested the blocking of the anti-CXCL13 chimeric antibodies to CHO-K1-CXCR5 cells. Briefly, 5×10⁴ CHO-K1-CXCR5 cells were plated in 96-well plate with 100 μl of culture medium and incubated at 37° C. overnight. Cells were fixed with 100 μl of 2% PFA at RT for 1 hr after washing with PBS for 1 time. Samples were blocked with 1% BSA in PBST for 1 hr at RT. Antibodies were serial diluted from 50 μg/ml by 3-fold with 1% BSA/PBST and pre-incubated with equal volume of 0.3 μg/ml human CXCL13 for 30 min at RT. 100 μl of antibody-antigen complex was transferred into each cell wells for 30 min at RT. Samples were washed with 1×PBST for 3 times and 100 μl of 3 μg/ml of human Mab5261 antibody was added into each well to capture human CXCL13 and anti-human Fc-HRP was used to indirectly detect human CXCL13 when it bound to CHO-K1-CXCR5 cells.
Then read at 450 nm. […] Among all clones, 415A3D1, 64C10G1, 1H3A11, 414D10F5, 411A11E9, 21H12D9, 71F4A3, 329F2E1 show completely blocking activity and 408E3F3, 19H7E10, 339A6E7 appeared to be partial blockers.
On the technique in general: An ELISA detects its analyte on a solid surface through an enzyme-linked reagent.
Consider B2, for which 15.1 µg/mL corresponded to half-maximal inhibition (IC50).
Still for that read-out and setting: the figure for B3 is 7.64 µg/mL.

The target of the next assay is T1, human CXCL13. Briefly: SPR Biacore, off-rate ranking of Fabs. For orientation: Surface plasmon resonance follows binding to a sensor surface in real time, without labels.
Molecule B4 had a dissociation constant (Kd) of 0.708 nM, an off-rate (koff) of 0.00287 s⁻¹ and an on-rate (kon) of 4.05e+06 M⁻¹ s⁻¹.
The like results for B5 were, in that order, 1.18 nM, 0.00139 s⁻¹ and 1.17e+06 M⁻¹ s⁻¹.
B1 had a dissociation constant (Kd) of 2.98 nM, a koff of 0.00543 s⁻¹ and a kon of 1.82e+06 M⁻¹ s⁻¹.

The next assay deals with T1, human CXCL13. The assay can be described thus: SPR Biacore 8K, Fab over immobilised CXCL13. The method, then:
HuCXCL13 binding affinity by Surface Plasmon Resonance. 411A11E9, 415A3D1, 64C10G1, 21H12D9, 329F2E1, 71F4A3 were selected to produce Fab and tested binding affinity. The binding of the antibodies to huCXCL13 was examined by Biacore 8K. 10 mM HEPES, 150 mM NaCl, 3 mM EDTA, 0.05% Tween-20, pH 7.4 served as running buffer and 10 mM glycine-HCl, pH2.0 served as regeneration buffer. CXCL13 protein was immobilized on Sensor Chip CM5 using amine coupling method (immobilization level ˜30RU). The serial concentrations of Fab (0-16 nM) were injected over immobilized CXCL13 at the flow rate of 30 μl/min. The dissociation phases were 600s.
Take B4: the affinity, expressed as Kd, was 0.158 nM; the koff amounted to 0.000326 s⁻¹; the kon turned out to be 2.06e+06 M⁻¹ s⁻¹.
The matching figures for B5: 0.341 nM, 0.000731 s⁻¹ and 2.14e+06 M⁻¹ s⁻¹.
The matching figures for B6: 0.602 nM, 0.000581 s⁻¹ and 966000 M⁻¹ s⁻¹.
Consider B7, for which the affinity, expressed as Kd, was 1.2 nM; the koff was 0.00306 s⁻¹; the kon is 2.56e+06 M⁻¹ s⁻¹.

The next assay concerns the target T1, human CXCL13. The assay can be described thus: SPR Biacore 8K, Fab over immobilised CXCL13. This is another data set of the same source. The method, then:
Among all humanized Fab samples, 71F4A3-VH2VL1, 71F4A3-VH1VL1 (Hz71F4), 71F4A3-VH1VL2, 71F4A3-VH3VL1, 411A11E9-VH1VL4, 411A11E9-VH3VL4, 411A11E9-VH2VL4, 411A11E9-VH3VL2, 411A11E9-VH1VL2, 21H12D9-VH1VL1, 21H12D9-VH2VL2, 21H12D9-VH3VL3, 21H12D9-VH1VL2, 64C10G1-VH1VL3, 64C10G1-VH1VL4, 64C10G1-VH1VL1, 64C10G1-VH1VL2 were selected to test affinity by Biacore 8K. 10 mM HEPES, 150 mM NaCl, 3 mM EDTA, 0.05% Tween-20, pH 7.4 served as running buffer and 10 mM glycine-HCl, pH2.0 served as regeneration buffer. CXCL13 protein were immobilized on Sensor Chip CM5 using amine coupling method (immobilization level ˜250RU). The serial concentrations of Fab (0-20 nM) were injected over immobilized CXCL13 at the flow rate of 30 μl/min. The dissociation phases were 600s.
For B4, binding was characterised by a dissociation constant (Kd) of 0.74 nM, the koff is 0.00156 s⁻¹ and the kon stood at 2.11e+06 M⁻¹ s⁻¹.
The matching figures for B5: 1.42 nM, 0.00258 s⁻¹ and 1.82e+06 M⁻¹ s⁻¹.
The like results for B1 were, in that order, 2.98 nM, 0.00543 s⁻¹ and 1.82e+06 M⁻¹ s⁻¹.

The next assay deals with T1, human CXCL13. Briefly: SPR Biacore T200. The protocol: To further optimization of 71F4-B, each Mutations in 71F4A3 useful for improving binding (Kon) were added into 71F4-B, the sequences were listed in Table 28. Antibodies according to these sequences were generated and affinity testing was performed by Biacore T200.
Consider B8, for which binding was characterised by a dissociation constant (Kd) of 0.443 nM, the koff came out at 8.58e-05 s⁻¹ and the kon came to 194000 M⁻¹ s⁻¹.
The like results for B9 were, in that order, 0.404 nM, 9.26e-05 s⁻¹ and 229000 M⁻¹ s⁻¹.
Turning to B10, the dissociation constant (Kd) is 0.377 nM, the dissociation rate constant (koff) worked out at 9.46e-05 s⁻¹ and the association rate constant (kon) was 251000 M⁻¹ s⁻¹.
Turning to B11, the affinity, expressed as Kd, was 0.52 nM; the koff came to 0.000268 s⁻¹; the kon came out at 515000 M⁻¹ s⁻¹.
As to B12, the Kd came to 0.0456 nM, the dissociation rate constant (koff) amounted to 1.17e-05 s⁻¹ and the kon amounted to 256000 M⁻¹ s⁻¹.
The matching figures for B13: 0.29 nM, 5.55e-05 s⁻¹ and 192000 M⁻¹ s⁻¹.
For the molecule B14, binding was characterised by a dissociation constant (Kd) of 0.0435 nM, the koff was found to be 1.02e-05 s⁻¹ and the kon came to 235000 M⁻¹ s⁻¹.

One may read the IC50 as the concentration that gives 50% inhibition. For orientation: EC50 means the midpoint of the concentration-response curve. As usually defined, the Kd is the equilibrium constant for the complex coming apart. Low values mean a tighter complex, high ones a looser complex. The term koff denotes the first-order rate constant of dissociation. Low readings indicate slow dissociation, high ones fast dissociation. In general, kon refers to the rate constant with which the complex forms. High values mean faster complex formation, low ones slower complex formation.
